Assay results published in patent US6790633.

Biological target: rat brain farnesyl:protein transferase (rat) (UniProt Q04631)
Test: cell-based or functional assay

Substance	concentration required for inhibition	fold decrease in affinity for the enzyme against CVIM, as estimated by the concentration required for 50% inhibition	fold decline in affinity for the enzyme	also measured
CVIM with lysine at the X position (peptide)	> 40 µM	> 30 fold	–	–
CVIM with glycine at the X position (peptide)	> 40 µM	–	–	–
CVIM with glycine at the A2 position (peptide)	–	–	–	concentration giving 50% inhibition: 8 µM
CVIM with glutamic acid at the A2 position (peptide)	–	–	> 50 fold	–
CVIM with lysine at the A2 position (peptide)	–	> 30 fold	> 50 fold	–
CVIM with glutamic acid at the X position (peptide)	> 40 µM	–	–	–
